Experimental data as given in patent US7022666.

Biological target: LIF receptor/gp130 heterodimer (rat) (UniProt O70535)
Assay: cell-based or functional assay

Sequence of UniProt O70535 (O70535 44-1093, chain 1 of 2): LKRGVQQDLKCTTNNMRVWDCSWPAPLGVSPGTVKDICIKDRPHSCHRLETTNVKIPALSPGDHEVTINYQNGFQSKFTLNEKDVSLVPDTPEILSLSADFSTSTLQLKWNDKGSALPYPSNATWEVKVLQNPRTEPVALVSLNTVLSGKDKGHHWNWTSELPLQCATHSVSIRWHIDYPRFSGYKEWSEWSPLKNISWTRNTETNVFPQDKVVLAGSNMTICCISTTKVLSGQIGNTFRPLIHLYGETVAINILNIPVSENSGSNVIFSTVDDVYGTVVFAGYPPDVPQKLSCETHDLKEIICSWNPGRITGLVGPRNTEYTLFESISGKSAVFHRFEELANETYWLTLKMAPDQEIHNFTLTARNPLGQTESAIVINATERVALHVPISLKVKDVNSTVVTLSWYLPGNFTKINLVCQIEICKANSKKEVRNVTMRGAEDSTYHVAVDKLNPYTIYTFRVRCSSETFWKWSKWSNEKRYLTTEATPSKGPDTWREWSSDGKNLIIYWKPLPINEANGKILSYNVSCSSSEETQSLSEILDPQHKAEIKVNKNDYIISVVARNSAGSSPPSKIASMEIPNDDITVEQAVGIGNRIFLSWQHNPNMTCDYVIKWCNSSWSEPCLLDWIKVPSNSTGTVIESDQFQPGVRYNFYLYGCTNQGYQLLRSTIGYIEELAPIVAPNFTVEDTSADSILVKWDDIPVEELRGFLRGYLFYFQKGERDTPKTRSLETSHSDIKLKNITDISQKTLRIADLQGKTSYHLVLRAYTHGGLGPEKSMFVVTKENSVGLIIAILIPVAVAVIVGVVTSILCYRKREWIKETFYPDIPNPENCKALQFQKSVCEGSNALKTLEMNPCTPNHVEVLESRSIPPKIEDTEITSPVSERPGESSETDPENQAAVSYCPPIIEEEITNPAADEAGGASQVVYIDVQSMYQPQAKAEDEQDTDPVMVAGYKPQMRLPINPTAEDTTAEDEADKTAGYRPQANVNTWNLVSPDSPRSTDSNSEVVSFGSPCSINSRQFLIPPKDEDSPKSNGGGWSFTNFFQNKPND
Sequence of UniProt O70535 (P40190 23-918, chain 2 of 2, further chain): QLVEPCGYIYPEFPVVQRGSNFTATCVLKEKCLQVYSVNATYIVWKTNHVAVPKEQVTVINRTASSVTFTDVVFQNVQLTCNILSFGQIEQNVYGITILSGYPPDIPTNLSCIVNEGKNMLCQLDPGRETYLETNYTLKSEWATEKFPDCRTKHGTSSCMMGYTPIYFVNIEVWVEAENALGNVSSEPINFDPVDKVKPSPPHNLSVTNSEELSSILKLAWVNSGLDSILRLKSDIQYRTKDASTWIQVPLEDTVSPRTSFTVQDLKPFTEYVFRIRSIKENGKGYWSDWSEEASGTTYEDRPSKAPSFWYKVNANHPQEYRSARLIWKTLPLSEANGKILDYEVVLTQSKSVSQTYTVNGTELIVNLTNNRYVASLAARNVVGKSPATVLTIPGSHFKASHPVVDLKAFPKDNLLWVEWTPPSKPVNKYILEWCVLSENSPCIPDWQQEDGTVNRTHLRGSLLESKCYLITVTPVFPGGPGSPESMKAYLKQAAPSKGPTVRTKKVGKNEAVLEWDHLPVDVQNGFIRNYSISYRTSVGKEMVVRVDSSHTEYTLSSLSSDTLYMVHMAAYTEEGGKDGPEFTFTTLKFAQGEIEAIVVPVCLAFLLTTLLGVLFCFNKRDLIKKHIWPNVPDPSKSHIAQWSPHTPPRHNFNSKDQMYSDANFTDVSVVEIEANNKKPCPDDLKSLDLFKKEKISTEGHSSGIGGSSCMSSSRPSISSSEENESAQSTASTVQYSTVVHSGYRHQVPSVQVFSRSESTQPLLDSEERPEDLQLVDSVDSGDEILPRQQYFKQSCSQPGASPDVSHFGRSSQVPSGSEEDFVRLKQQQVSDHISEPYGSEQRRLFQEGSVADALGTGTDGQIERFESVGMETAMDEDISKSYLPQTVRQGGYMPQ

conversion of metanephric mesenchyme into epithelia (lowest active dose): 0.2 nM
Substance: recombinant leukemia inhibitory factor (ligand)
